Data set [1] deals with the molecule itself. In words: 2D solid-state NMR (DARR) on fibrils, self-association.
Data set [2] concerns the target Aβ1-42 peptide (SEQ ID NO: 157) (Homo sapiens (Human), UniProt P05067 672-713). In words: cell-based or functional assay.

No end group written: not given here.

B1: truncated glycophorin A peptide GpA70-86 (SEQ ID NO: 158) (peptide)
peptide: EPEITLIIFGVMAGVIG
modifications: not fully specified
notes: 17-residue fragment of glycophorin A, residues 70-86, that forms fibrils; NMR samples were 13C-labelled at Gly79, Gly83 or the Met81 methyl; also called truncated GpA; glycophorin A transmembrane peptide fragment
Consider B1, for which the binding result in data set [1] is “binds”.

B2: amyloid fibril inhibitor protein RGTFEGKF-NH2 (SEQ ID NO: 1) (peptide)
peptide: RGTFEGKF-NH2
modifications: not fully specified; printed as RGTFEGKF-NH2
Turning to B2, the “thioflavin T fluorescence, inhibition of fibrillization at Aβ1-42:I1 molar ratio 1:20” value in data set [2] came to 70%.
